From patent US20140242080A1 (Hoffmann-La Roche, published 2014)
Residue numbers refer to the chain shown, from its start.

T1: hu-MCSP(D3 domain)-avi-his (human, UniProt Q6UVK1 1582-2224)
T1 construct: Recombinant D3 domain with avi and his tags; also called human MCSP(D3 domain)-avi-his; Human MCSP D3
T1 sequence: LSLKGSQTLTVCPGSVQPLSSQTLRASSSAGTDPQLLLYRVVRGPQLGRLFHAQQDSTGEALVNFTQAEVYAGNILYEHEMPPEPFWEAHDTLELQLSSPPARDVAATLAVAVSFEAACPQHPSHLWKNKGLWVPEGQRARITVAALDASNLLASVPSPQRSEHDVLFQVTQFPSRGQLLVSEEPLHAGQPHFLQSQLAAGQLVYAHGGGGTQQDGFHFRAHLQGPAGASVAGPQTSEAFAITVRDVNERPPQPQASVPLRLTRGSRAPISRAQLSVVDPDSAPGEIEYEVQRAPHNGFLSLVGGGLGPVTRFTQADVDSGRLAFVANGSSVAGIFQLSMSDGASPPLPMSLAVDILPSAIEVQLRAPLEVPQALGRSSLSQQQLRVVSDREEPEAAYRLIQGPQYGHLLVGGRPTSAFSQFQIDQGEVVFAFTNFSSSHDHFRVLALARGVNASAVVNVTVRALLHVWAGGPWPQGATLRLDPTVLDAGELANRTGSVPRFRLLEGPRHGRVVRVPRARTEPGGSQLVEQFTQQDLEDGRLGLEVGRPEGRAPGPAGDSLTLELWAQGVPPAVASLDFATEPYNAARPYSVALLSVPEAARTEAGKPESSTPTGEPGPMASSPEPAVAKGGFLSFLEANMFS

T2: cynomolgus MCSP D3 (cynomolgus, UniProt Q6UVK1 1582-2224 (human entry), limits assumed)
T2 construct: also called Cyno MCSP; cynomolgus homologue
T2 chain: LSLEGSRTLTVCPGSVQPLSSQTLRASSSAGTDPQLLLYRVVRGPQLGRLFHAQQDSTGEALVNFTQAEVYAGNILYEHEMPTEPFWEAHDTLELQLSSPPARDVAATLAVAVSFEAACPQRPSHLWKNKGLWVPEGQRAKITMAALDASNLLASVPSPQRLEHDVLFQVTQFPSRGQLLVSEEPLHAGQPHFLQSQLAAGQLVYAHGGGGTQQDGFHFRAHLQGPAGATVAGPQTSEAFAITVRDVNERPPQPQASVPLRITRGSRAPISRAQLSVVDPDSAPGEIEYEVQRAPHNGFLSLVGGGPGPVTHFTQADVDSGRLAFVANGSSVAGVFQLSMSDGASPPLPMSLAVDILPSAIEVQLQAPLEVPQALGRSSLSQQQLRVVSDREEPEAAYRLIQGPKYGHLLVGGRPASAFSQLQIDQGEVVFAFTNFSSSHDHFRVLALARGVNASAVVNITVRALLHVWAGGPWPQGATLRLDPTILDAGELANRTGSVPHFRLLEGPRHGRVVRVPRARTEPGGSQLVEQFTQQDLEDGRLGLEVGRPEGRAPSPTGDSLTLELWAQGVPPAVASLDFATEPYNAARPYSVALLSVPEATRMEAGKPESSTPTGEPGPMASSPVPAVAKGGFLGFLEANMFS

B1: 1 + 1 IgG Crossfab; VL/VH exchange (LC007/V9) (anti-MCSP/anti-huCD3) (bispecific antibody)
chain 1: DIVLTQSPSSLSASLGDRVTISCSASQGIRNYLNWYQQRPDGTVKLLIYYTSSLHSGVPSRFSGSGSGTDYSLTISNLEPEDIATYYCQQYSKLPWTFGGGTKLEIKRTVAAPSVFIFPPSDEQLKSGTASVVCLLNNFYPREAKVQWKVDNALQSGNSQESVTEQDSKDSTYSLSSTLTLSKADYEKHKVYACEVTHQGLSSPVTKSFNRGEC
chain 2: DIQMTQSPSSLSASVGDRVTITCRASQDIRNYLNWYQQKPGKAPKLLIYYTSRLESGVPSRFSGSGSGTDYTLTISSLQPEDFATYYCQQGNTLPWTFGQGTKVEIKSSASTKGPSVFPLAPSSKSTSGGTAALGCLVKDYFPEPVTVSWNSGALTSGVHTFPAVLQSSGLYSLSSVVTVPSSSLGTQTYICNVNHKPSNTKVDKKVEPKSCGGGGSGGGGSEVQLQESGPGLVKPSQSLSLTCSVTGYSITSGYYWNWIRQFPGNKLEWMGYITYDGSNNYNPSLKNRISITRDTSKNQFFLKLNSVTTEDTATYYCADFDYWGQGTTLTVSSASTKGPSVFPLAPSSKSTSGGTAALGCLVKDYFPEPVTVSWNSGALTSGVHTFPAVLQSSGLYSLSSVVTVPSSSLGTQTYICNVNHKPSNTKVDKKVEPKSCDKTHTCPPCPAPEAAGGPSVFLFPPKPKDTLMISRTPEVTCVVVDVSHEDPEVKFNWYVDGVEVHNAKTKPREEQYNSTYRVVSVLTVLHQDWLNGKEYKCKVSNKALGAPIEKTISKAKGQPREPQVCTLPPSRDELTKNQVSLSCAVKGFYPSDIAVEWESNGQPENNYKTTPPVLDSDGSFFLVSKLTVDKSRWQQGNVFSCSVMHEALHNHYTQKSLSLSPGK
chain 3: EVQLVESGGGLVQPGGSLRLSCAASGYSFTGYTMNWVRQAPGKGLEWVALINPYKGVSTYNQKFKDRFTISVDKSKNTAYLQMNSLRAEDTAVYYCARSGYYGDSDWYFDVWGQGTLVTVSSASVAAPSVFIFPPSDEQLKSGTASVVCLLNNFYPREAKVQWKVDNALQSGNSQESVTEQDSKDSTYSLSSTLTLSKADYEKHKVYACEVTHQGLSSPVTKSFNRGEC
chain 4: not shown
B2: 1 + 1 CrossMab; CL/CH1 exchange (LC007/V9) (anti-MCSP/anti-huCD3) (bispecific antibody)
chain 1: B1 chain 1
chain 2: EVQLQESGPGLVKPSQSLSLTCSVTGYSITSGYYWNWIRQFPGNKLEWMGYITYDGSNNYNPSLKNRISITRDTSKNQFFLKLNSVTTEDTATYYCADFDYWGQGTTLTVSSASTKGPSVFPLAPSSKSTSGGTAALGCLVKDYFPEPVTVSWNSGALTSGVHTFPAVLQSSGLYSLSSVVTVPSSSLGTQTYICNVNHKPSNTKVDKKVEPKSCDKTHTCPPCPAPEAAGGPSVFLFPPKPKDTLMISRTPEVTCVVVDVSHEDPEVKFNWYVDGVEVHNAKTKPREEQYNSTYRVVSVLTVLHQDWLNGKEYKCKVSNKALGAPIEKTISKAKGQPREPQVCTLPPSRDELTKNQVSLSCAVKGFYPSDIAVEWESNGQPENNYKTTPPVLDSDGSFFLVSKLTVDKSRWQQGNVFSCSVMHEALHNHYTQKSLSLSPGK
chain 3: DIQMTQSPSSLSASVGDRVTITCRASQDIRNYLNWYQQKPGKAPKLLIYYTSRLESGVPSRFSGSGSGTDYTLTISSLQPEDFATYYCQQGNTLPWTFGQGTKVEIKSSASTKGPSVFPLAPSSKSTSGGTAALGCLVKDYFPEPVTVSWNSGALTSGVHTFPAVLQSSGLYSLSSVVTVPSSSLGTQTYICNVNHKPSNTKVDKKVEPKSC
chain 4: not shown
B3: M4-3(A7)/ML2(E10) IgG (antibody, V domains shown)
VH: QVQLQESGPGLVKPSQTLSLTCTVSGGSITDGYYWNWIRQHPGKGLEWIGYITFDGRNNYNPSLKSRVTISRDTSKNQFSLKLSSVTAADTAVYYCADFDYWGQGTLVTVSS
VL: DIQMTQSPSSLSASVGDRVTITCRASYGIRGYLNWYQQKPGKAPKLLIYYTSSLHSGVPSRFSGSGSGTDFTLTISSLQPEDFATYHCQQYSKLPWTFGQGTKVEIK
notes: Human IgG1
B4: M4-3(C1)/ML2 IgG (antibody, V domains shown)
VH: B3 VH with D31S, R57S
VL: DIQMTQSPSSLSASVGDRVTITCRASQGIRNYLNWYQQKPGKAPKLLIYYTSSLHSGVPSRFSGSGSGTDFTLTISSLQPEDFATYYCQQYSKLPWTFGQGTKVEIKR
notes: Human IgG1; copies: 2 + 2
B5: M4-3(D6)/ML2 IgG (antibody, V domains shown)
VH: B3 VH with D31S, R57K
VL: B3 VL with Y27Q, G31N, H87Y
notes: Human IgG1
B6: M4-3/ML2(C5) IgG (antibody, V domains shown)
VH: B3 VH with D31S, F54Y, R57S
VL: B3 VL with Y27R, G31E, S52G, H87Y, K93E
notes: Human IgG1
B7: M4-3(A7)/ML2 IgG (antibody, V domains shown)
VH: B3 VH
VL: B3 VL with Y27Q, G31N, H87Y
notes: Human IgG1
B8: M4-3(B8)/ML2 IgG (antibody, V domains shown)
VH: B3 VH with D31S
VL: B3 VL with Y27Q, G31N, H87Y
notes: Human IgG1
B9: M4-(A7)/ML2(C5) IgG (antibody, V domains shown)
VH: B3 VH
VL: B3 VL with Y27R, G31E, S52G, H87Y, K93E
notes: Human IgG1; also called M4-3(A7)/ML2(C5)
B10: M4-3/ML2(C5/G3) IgG (antibody, V domains shown)
VH: B3 VH with D31S, F54Y, R57S
VL: B3 VL with Y27R, G31E, S52G, H87Y, K93A
notes: Human IgG1
B11: M4-3/ML2(G3) IgG (antibody, V domains shown)
VH: B3 VH with D31S, F54Y, R57S
VL: B3 VL with Y27Q, G31N, F71Y, H87Y, K93A
notes: Human IgG1
B12: M4-3(A7)/ML2(G3) IgG (antibody, V domains shown)
VH: B3 VH
VL: B3 VL with Y27Q, G31N, F71Y, H87Y, K93A
notes: Human IgG1
B13: M4-3/ML2(E10) IgG (antibody, V domains shown)
VH: B3 VH with D31S, F54Y, R57S
VL: B3 VL
notes: Human IgG1
B14: M4-3(B7)/ML2 IgG (antibody, V domains shown)
VH: B3 VH with D31S, R57I
VL: B3 VL with Y27Q, G31N, H87Y
notes: Human IgG1
B15: M4-3/ML2(E10/G3) IgG (antibody, V domains shown)
VH: B3 VH with D31S, F54Y, R57S
VL: B3 VL with K93A
notes: Human IgG1

What follows are binders tested against human MCSP expressed on tumor cells (Colo-38, WM266-4, A375, MV-3, HCT-116) (human, UniProt Q6UVK1 30-2322) (assay: cell-based or functional assay).
human MCSP expressed on tumor cells (Colo-38, WM266-4, A375, MV-3, HCT-116), sequence (Q6UVK1 30-2322): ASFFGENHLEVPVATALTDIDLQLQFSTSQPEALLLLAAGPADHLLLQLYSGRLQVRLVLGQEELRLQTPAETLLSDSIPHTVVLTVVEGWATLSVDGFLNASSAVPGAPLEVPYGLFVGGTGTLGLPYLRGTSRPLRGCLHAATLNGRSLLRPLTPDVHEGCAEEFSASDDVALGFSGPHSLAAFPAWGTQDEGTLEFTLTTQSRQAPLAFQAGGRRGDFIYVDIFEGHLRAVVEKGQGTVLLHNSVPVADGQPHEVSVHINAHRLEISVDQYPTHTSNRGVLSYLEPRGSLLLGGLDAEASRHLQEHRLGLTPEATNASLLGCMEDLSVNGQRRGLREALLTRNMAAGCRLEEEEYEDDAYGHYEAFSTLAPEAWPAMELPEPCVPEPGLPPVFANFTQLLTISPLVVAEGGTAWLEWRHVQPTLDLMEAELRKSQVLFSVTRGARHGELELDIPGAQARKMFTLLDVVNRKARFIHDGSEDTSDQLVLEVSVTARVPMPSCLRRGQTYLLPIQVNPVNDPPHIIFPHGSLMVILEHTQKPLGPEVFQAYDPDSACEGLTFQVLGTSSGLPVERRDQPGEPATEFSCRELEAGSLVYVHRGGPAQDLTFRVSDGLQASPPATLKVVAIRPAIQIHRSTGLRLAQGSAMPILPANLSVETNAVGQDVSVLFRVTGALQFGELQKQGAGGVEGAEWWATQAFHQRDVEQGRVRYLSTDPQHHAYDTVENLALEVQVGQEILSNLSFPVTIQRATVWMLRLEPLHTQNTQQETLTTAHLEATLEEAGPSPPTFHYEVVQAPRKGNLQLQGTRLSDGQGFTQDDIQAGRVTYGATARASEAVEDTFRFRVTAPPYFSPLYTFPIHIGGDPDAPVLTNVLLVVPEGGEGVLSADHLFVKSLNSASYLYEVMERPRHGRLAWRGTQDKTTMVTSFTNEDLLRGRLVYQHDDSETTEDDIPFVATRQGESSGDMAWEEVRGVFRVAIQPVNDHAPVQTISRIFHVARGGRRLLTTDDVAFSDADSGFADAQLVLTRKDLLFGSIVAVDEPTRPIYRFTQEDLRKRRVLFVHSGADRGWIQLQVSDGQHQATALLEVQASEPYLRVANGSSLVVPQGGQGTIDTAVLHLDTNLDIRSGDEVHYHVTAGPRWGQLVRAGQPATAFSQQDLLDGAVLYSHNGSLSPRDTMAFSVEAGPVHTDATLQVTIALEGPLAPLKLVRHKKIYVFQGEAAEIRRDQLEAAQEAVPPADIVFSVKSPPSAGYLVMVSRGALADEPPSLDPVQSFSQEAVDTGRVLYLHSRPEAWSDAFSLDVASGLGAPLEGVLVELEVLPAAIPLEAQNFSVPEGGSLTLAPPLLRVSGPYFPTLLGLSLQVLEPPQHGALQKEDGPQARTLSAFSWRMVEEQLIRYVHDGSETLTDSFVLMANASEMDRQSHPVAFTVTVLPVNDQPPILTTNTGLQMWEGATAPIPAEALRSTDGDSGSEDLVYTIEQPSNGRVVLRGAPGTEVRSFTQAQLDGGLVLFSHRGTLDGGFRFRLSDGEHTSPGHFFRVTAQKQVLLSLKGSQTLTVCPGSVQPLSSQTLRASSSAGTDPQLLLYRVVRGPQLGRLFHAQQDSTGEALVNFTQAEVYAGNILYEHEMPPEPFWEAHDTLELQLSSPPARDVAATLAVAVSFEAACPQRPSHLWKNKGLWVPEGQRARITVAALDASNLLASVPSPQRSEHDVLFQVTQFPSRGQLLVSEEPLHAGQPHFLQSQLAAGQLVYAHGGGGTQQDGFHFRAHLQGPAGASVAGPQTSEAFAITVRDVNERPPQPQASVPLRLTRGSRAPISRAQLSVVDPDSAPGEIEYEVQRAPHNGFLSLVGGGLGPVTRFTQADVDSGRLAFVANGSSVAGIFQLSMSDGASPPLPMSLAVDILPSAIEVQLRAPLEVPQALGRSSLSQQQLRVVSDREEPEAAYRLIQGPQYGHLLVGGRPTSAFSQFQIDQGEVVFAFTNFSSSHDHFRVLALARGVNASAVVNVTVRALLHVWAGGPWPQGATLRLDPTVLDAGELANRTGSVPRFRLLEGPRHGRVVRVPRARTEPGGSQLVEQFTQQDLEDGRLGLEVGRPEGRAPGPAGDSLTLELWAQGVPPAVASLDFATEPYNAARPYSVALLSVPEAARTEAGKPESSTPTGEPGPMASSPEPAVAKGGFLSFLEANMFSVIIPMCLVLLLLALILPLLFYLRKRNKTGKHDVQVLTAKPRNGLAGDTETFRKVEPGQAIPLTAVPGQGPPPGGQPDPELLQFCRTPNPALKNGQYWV

Row | Binder | EC50 of T cell-mediated killing (LDH release), MV-3 cells, human PBMCs E:T 10:1, 21 h | EC50 of T cell-mediated killing (LDH release), WM266-4 cells, human PBMCs E:T 10:1, 21 h
1 | B1 | 0.0409 nM | 0.0284 nM
2 | B2 | 0.0884 nM | 0.0539 nM

What follows are binders tested against T1, hu-MCSP(D3 domain)-avi-his (assay: SPR ProteOn XPR36, 25 C; IgG captured via anti-human F(ab')2, MCSP D3 as analyte).

Row | Binder | Kd
3 | B3 | 0.3 nM
4 | B4 | 0.9 nM
5 | B5 | 0.4 nM
6 | B6 | 0.4 nM
7 | B7 | 0.8 nM
8 | B8 | 0.9 nM
9 | B9 | 0.7 nM
10 | B10 | 0.7 nM
11 | B11 | 0.3 nM
12 | B12 | 0.07 nM
13 | B13 | 1 nM
14 | B14 | 0.5 nM
15 | B15 | 0.4 nM

Biological target: T2, cynomolgus MCSP D3
Experiment: as above

Row | Binder | Kd
16 | B3 | 0.7 nM
17 | B4 | 0.8 nM
18 | B5 | 1 nM
19 | B6 | 1 nM
20 | B7 | 1 nM
21 | B8 | 1 nM
22 | B9 | 0.2 nM
23 | B10 | 1 nM
24 | B11 | 0.6 nM
25 | B12 | 0.2 nM
26 | B13 | 2 nM
27 | B14 | 0.7 nM
28 | B15 | 0.9 nM

What follows are binders tested against T1, hu-MCSP(D3 domain)-avi-his (assay: ratio of ProteOn IgG KD, parent M4-3/ML2 against variant).

Row | Binder | Fold increase over parent
29 | B3 | 6.7 fold
30 | B4 | 2.2 fold
31 | B5 | 5 fold
32 | B6 | 5 fold
33 | B7 | 2.5 fold
34 | B8 | 2.2 fold
35 | B9 | 28.6 fold
36 | B10 | 2.9 fold
37 | B11 | 6.7 fold
38 | B12 | 28.6 fold
39 | B13 | 2 fold
40 | B14 | 4 fold
41 | B15 | 5 fold

Biological target: T2, cynomolgus MCSP D3
Experiment: as above

Row | Binder | Fold increase over parent
42 | B3 | 2.9 fold
43 | B4 | 2.5 fold
44 | B5 | 2 fold
45 | B6 | 2 fold
46 | B7 | 2 fold
47 | B8 | 2 fold
48 | B9 | 10 fold
49 | B10 | 2 fold
50 | B11 | 3.3 fold
51 | B12 | 10 fold
52 | B13 | 1 fold
53 | B14 | 2.9 fold
54 | B15 | 2.2 fold
